Measured values as given in a protein production outcome set (Wang et al. 2014).

Assay: label from the status in PepcDB records

For “MAIMRHGLAASVMGTALAMVVAVLPAGCANGQVGEANRPGTTPPSEIALAPSGLGSYLAARHAEAEGDTEAAAAFYLTALADDPDNLNLLRRAYFFNAVEGKVGEAAELASRLMVSDPTATIAPLVISADLAKRGQMREAATLINGQNRQGLNSFLVPVALAWARAGAGDAGGAMTALDELSKNAGYATLRALHGALLQEQLGNKAKAGELYEAYVKGGERPSLRGVQLAGGFFVRTGQAARARALAADYSQRFPDSLLLDNAVAGFAEGGTPPAPEVGTAKDGMAELYYGTASLLADNDLQTATMFNRLALHLRPDFPLAQLLLGQLLAGQNRHDDAIAAYRGIESHDTLMLAAGLAEAESLRAQGKIDDAVVEFDKLAAHFPSRPDPLIEKGDLLRQDQRFAEAATAYSAAIARMGAPDPRHWAVYFGRGVAYERTDRWPLAEQDFQTALRLNPDQPFVLNYLGYSWLDNGINVDQAKQLIERAVAQRPKDGYIIDSLGWAHFRLGEYAEAVGILERAIHETPDDATINDHLGDAYWMVGRRLEARYQWERALSLADDADLSASIQKKLDTGLSPPSPVVPRSAGRPAERQPTSATP”, the protein production was “failed”.

With “MPANKKEGLIFGVMMCFGMVCVMSIYNAIINRAIYDFSLMTVFEMVIGFMIALLLDLLLVGPLAKKIAFRMPFDKTKKIYVILAMSTCMVIGMVLCMSVFGLVTAVLANGLNGDSLFSAYLMIVLKNFILAYPLQLLIMGPLVRGVFMKFVKPKLTAAI” the protein production was “failed”.

In the case of “MNLDAPRVLVLNAAYEVLGLASIKRAVLLVLGGGAEMVSESGLYLNTPSTRIPVPSVVRLKRMVRRRPGRVPLNRRNVLRRDRYTCQYCGQKGGELTVDHVLPKSRGGKSTWDNLVAACRSCNLRKGDRTPEEAGMRLLRPPKPPRVPLFLLDLKEVPPDWRPFVEGLLGLEHHHHHH”, the protein production was “not failed”.

For “MAIEGKTTDVANKRIRLGMVGGGSGAFIGGVHRMAARLDNRFDLVAGALSSTPEKSLASGRELGLDSERCYGSFEEMAEKEALREDGIEAVAIVTPNHVHYPAAKAFLERGIHVICDKPLTSNLEDAKKLKDVADKADALFILTHNYTGYPMVRHARELVEAGALGNIRLVQMEYPQDWLTEAVEQTGAKQAVWRTDPAQSGVGGSTGDIGTHAYNLGCFISGLEADELAADVHTFVEGRRLDDNAHVMMRFKPKGGKQPARGMLWCSQVAVGHENGLKIRLYGDKAGLEWTQADPNYLWFTKLGEPKQLITRGGAGAGAAAARVTRIPSGHPEGYLEAFATIYTEAAHAIEARRTGSALDKAVIYPTVDDGVKGVAFVTACIESGKKNGGWVKL”, the protein production was “failed”.

For “MEKYIFWVTAIFQIGVFALMLYYLFIALFGFYKKKDTKTFEPQKKFAMLVAAHNEEVVIENLVESLKHLDYPKELYDIFVIADNCTDNTAKIARAAGANVFERFNKEKRGKGFALEWMFDKIFKMDTHYDGIAVFDADNLVDKNFLKEMNNKMCEGFKVVQGYIDSKNPQDSWITESYAIAFTSANRMLQLAKSNIGLSAQIGGTGFVIDTATLKKLGWGATCLTEDLEFSCKLILNGEKVGWAHDAIIYDEKPLTLKASWNQRKRWMQGFADVATRYGMKLLKKSIKDRSLVAFDCTLYVMQPFVTLATGLAGLLTFVQIRAVDGLGIFVISYLFNATVWQLFCVFQFLLTPFALLFDKKMSGKLFVVLGLYACNVFIQPYLINQLGILDNIMLLTLFNVAYIGIFLIGTLLFLGKRNFQIFYRYLIYPLYILTWIPITIQGIIDKDKKEWSHTKHVRQIGIYEV”, the protein production was “failed”.

In the case of “MNGIHDVGGMDGFGKVMYVKEEEDIYFTHDWERLALGLVAGCMAQGLGMKAFDEFRIGIELMRPVDYLTSSYYGHWIATVAYNLVDTGVLDEKELDERTEVFSKKPDTKIPRREDPALVKLVEKALNDGLSPLREISASPRFKVGERIKTKNIHPTGHTRFPRYARDKYGVIDEVYGAHVFPDDAAHRKGENPQYLYRVRFEAEELWGYKQKDSVYIDLWESYMEPVSH”, the protein production was “not failed”.

For “MSELEEDFAKILMLKEERIKELEKRLSEKEEEIQELKRKLHKCQSVLPVPSTHIGPRTTRAQGISAEPQTYRSFHDLRQAFRKFTKSERSKDLIKEAILDNDFMKNLELSQIQEIVDCMYPVEYGKDSCIIKEGDVGSLVYVMEDGKVEVTKEGVKLCTMGPGKVFGELAILYNCTRTATVKTLVNVKLWAIDRQCFQTIMMRTGL”, the protein production was “failed”.

With “MKKIRLSKFIKMIVVILFLISVAASFYFFHVAQVRDDKSFISNGQRKPGNSLYAYDKSFDKLLKQKIEMTNQNIKQVAWYVPAVKKTHKTAVVVHGFANSKENMKAYGWLFHKLGYNVLMPDNIAHGESHGQLIGYGWNDRENIIKWTEMIVDKNPSSQITLFGVSMGGATVMMASGEKLPSQVVNIIEDCGYSSVWDELKFQAKEMYGLPAFPLLYEVSTISKIRAGFSYGQASSVEQLKKNNLPALFIHGDKDNFVPTSMVYDNYKATAGKKELYIVKGAKHAKSFETEPEKYEKRISSFLKKYEK” the protein production was “failed”.

In the case of “ENGSRKQLYRLDLKTLEISQIQTGEDVVQWFGVATDNGAVWYSGQSANNADRLYRLDGTKGKLVWDLSAEKLANIDFTPARDWNYTAPDGTVVEGWYYLPPQFDPSKKYPMLVYYYGGTSPINRTLEGHYSLAMYAAQGYVVYTLNPSGTTGYGQEYAARHVNAWGDRTADEIIGATKEFIRTHSFVNGKK”, the protein production was “failed”.

For “DRCYNCGGLDHHAKECKLPPQPKKCHFCQSISHMVASCPLKAQQGPSAQG”, the protein production was “not failed”.

For “MSDVSTQSPKVGFVSLGCPKALVDSEQIITQLRAEGYEISGTYGGADLVVVNTCGFIDEAVQESLDAIGEALAENGKVIVTGCLGAKKDAAGQDIITSVHPKVLAVTGPHALGEVMEAVHTHLPKPHDPFIDLVPPQGIKLTPKHYAYLKISEGCNHRCSFCIIPSMRGDLVSRPVAEVMLEAENLLKAGVKELLVISQDTSAYGVDVKFRTGFWNGRPLKTRMTELVGALGELAAQYGAWVRLHYVYPYPSVDEVMPLMAEGKVLPYLDVPLQHAHPEVLKRMKRPANAEKTLDRIRAWREVCPELTIRSTFIAGFPGETEEEFQTLLDFIAEAELDRVGCFAYSPVEGATANDLPGALPDEVREERRARFMEVAERVSARRLQRKVGKTLRVLVDEVNQDGGIGRSSADAPEIDGLVYIAPPSKPYKRYKAGDFVSVKITGADGHDLWGEVLEHHHHHH”, the protein production was “failed”.

With “MSGTRHQIVVALGDTRYRVDRPFGTWPQTAGKVSDVVVLRDGRVLVLLRSDPYVDPDGPRVIVLSCDGDYLGAWGDLDIADAHLMTPAPDGRLFIVDRDMHEIIVFSADGQRVGGIGTRGAPGTPFNHPTDVAFAPSGDFYVSDGYAGWHVHRFAGDGTHLATWGAFGSGRGEFLEPHSLWCLPDGRVVVVDRCNNRLQVFDADGVFLDEWTGFHRAVGIWGDDAGDIFVSDQVPSLHRISQNGTRLGRARPVLNGAHGIFGSPDGTIYLAEANPSRVSRLTPL” the protein production was “failed”.

With “MKLVICAGPATTGKTAVLRHAIGKLIGRGFKPAFLKIDVQYAEEDEQFAREFAIPTRKTYSGDLCPDHCTVMVLGEALEWAGRQGADVLLVETAGLCLRCSPYVDGGLGVIVLEATSGMNLPLKVGPMLSLADVAVVTKIDRISQAEREVFRARIQDVAPGVRIREANALHGIGIDPLVDQIQATPDVDATLSLRGNPPVGTCTICVGKKEIGWKAHFGVVRSLENQTFYRGELEHHHHHH” the protein production was “failed”.

For “VLYYKDFKIGLGKNQKENIKLLQDARANDLWMHVRNIPGSHLIVFCQKNAPKDDVIMELAKMLIKMQKDAFNSYEIDYTQRKFVKIIKGANVIYSKYRTISLKDT”, the protein production was “failed”.

In the case of “GEEDWVLPSEVEVLESIYLDELQVIKGNGRTSPWEIYITLHPATAEDQDSQYVCFTLVLQVPAEYPHEVPQISIRNPRGLSDEQIHTILQVLGHVAKAGLGTAMLYELIEKGKEILTDNNIPHGQCVICLYGFQEKEAFTKTPCYHYFHCHCLARY”, the protein production was “failed”.

With “MLYFIPTPIGNLSDISFRALELLKTCDLVFCEDTRVSKSLISLLNTKFHTDIHISKFIALHSHNEKEVLASIDLKIFEKNVAYLSDAGMPGISDPGKALVEFAQENNITYEILPGA” the protein production was “not failed”.

For “MKRPELIIFDWDGTLFDSVGQIVASLRFAADQFNQPLTDEAAQSIIGLGLPEVMQALFPQVPHLHQEILVHYGEHYVENSKHDAWFEGVAELLHDLKAQGIKLAVATGKSRRGLDRVLNKTQSHELFDITRAASETMSKPHPRMLEEILQVTQVEAQHAIMVGDSSYDLEMAKNIDMPRVGVSYGVHEVDVLQRYEPLTIVDSIAELHHYLTQLLQEKIHA”, the protein production was “failed”.
